Assay results reported in paper PMC9160799, “PET Imaging of Acidic Tumor Environment With ^89Zr-labeled pHLIP Probes” (Frontiers in Oncology, 2022).
Entries after “also recorded” stand apart in the source; their conditions may differ. Where two headings read alike, the source gives them in different places. Square brackets hold non-standard residues; d marks the D form. Peptide text beside a SMILES is read from it. * marks the point of attachment. X1 = CC(=O)N(O)CCCCCNC(=O)CCC(=O)N(O)CCCCCNC(=O)CCC(=O)N(O)CCCCCNC(=O)CCC(=O)N(O)CCCCCNC(=S)Nc1ccc(NC(=S)*)cc1

How the values were obtained:
[1] = Post-mortem biodistribution, RM-1 tumor model; format: in vivo, male athymic nude mice; conditions: male, athymic nude, mouse, iv, 1.2 nmol, total radioactivity; for tissue uptake at 48 h: RM-1, male athymic nude mice, 48 h p.i., i.v. 1.2 nmol, 7.4 MBq, gamma counting, mean ± S.D., n=4
Procedure: The media were provided by the MSK Media Preparation Core. […] Another aliquot was diluted with the medium so that 50 µL contained 1×10^6 cells.
(§1) The imaging and biodistribution studies were performed with male (RM-1 model) and female (4T1 model) athymic nude mice and the kidney-blocking experiments were performed with female SCID mice received from Charles River Laboratories (Stone Ridge, NY). After arrival, the mice were kept in the MSK vivarium for one week before any experimental handling was performed. The animals were allowed free access to water and food, and all animal care and experimental procedures were approved by the Institutional Animal Care and Use Committee (IACUC). For the subcutaneous allografts, a 1-to-1 ratio of Corning Matrigel Matrix and the cell solution was prepared and stored on ice for the injections. Each mouse received a subcutaneous injection of 100 µL (50 µL cell solution, viability > 90%, + 50 µL Matrigel) into the flank on the level of the right shoulder. The injections were performed under anesthesia (2% isoflurane, Baxter Healthcare, Deerfield, IL, USA).
The mice were intravenously injected (tail vein) with the radiolabeled pHLIP conjugates (1.2 nmol, 7.4 MBq/200 µCi, 100 µL, in sterile filtered PBS). The activity of the syringe prior to injection and after injection was used to determine the percent of injectate administered.
For the biodistribution studies the tumor-bearing mice were randomized before the injections. Only mice with suitable tumors (150–300 mm^3) were utilized. An exception was made for the 120-hour timepoint, for which only mice with smaller tumors (150 mm^3) were selected. The mice were grouped in cohorts of four. At the respective timepoint, the mice were euthanized (by CO2 asphyxiation, followed by cervical dislocation) and their blood was collected by cardiac puncture as a terminal procedure, followed by quick removal of the tumors. After this, the other organs/samples were collected. […] The exact activities of all samples of one mouse were determined by an Capintec® CRC-55tR dose calibrator. These decay-corrected measurements were used to determine a calibration factor and calibrate all counts to the corresponding activities. Activity concentrations were calculated as percentage injected dose per tissue weight (%ID/g wet tissue). All data was processed and visualized using Origin 8.5.

[2] = test system: kidney uptake of [89Zr]Zr-DFOsqa-Lys-Var3; test: Kidney-blocking study (PET imaging); format: in vivo, healthy female SCID mice; conditions: drug IV 30 min before 7.4 MBq [89Zr]Zr-DFOsqa-Lys-Var3 (1.2 nmol); two doses per drug, n=2 each; PET 24 h p.i. vs control mice
Procedure: as §1, with “USA). Palpable tumors of similar size (100–300 mm^3) developed 5–8 days after grafting.” for “USA).”
PET images were obtained at the respective timepoints with the mice under anesthesia (2% isoflurane) on a microPET Focus 120 (Concorde Microsystems) or an Inveon PET-CT (Siemens) rodent scanner. All images were analyzed using the Medical Imaging Data Examiner Amide (version 0.9.0) or the Inveon reconstruction software suite. The counting rates in the reconstructed images were converted to percent of injected dose per weight (%ID/g) by applying a system-specific calibration factor. At the final timepoint, the remaining mice were euthanized (by CO2 asphyxiation, followed by cervical dislocation) and their tumors were resected for histological analysis.
Additional experiments were performed to investigate the influence of various kidney-uptake blockers and diuretics. Healthy female SCID mice received a “blocking agent” 30 minutes prior to the injection of [^89Zr]Zr-DFOsqa-Lys-Var3 (7.4 MBq/200 µCi, 1.2 nmol). […] The experimental set-up can be found in Table S6 .
Table S6. Summary of the kidney-blocking study. Healthy female SCID mice (2 mice per experiment/ dosage + 2 control mice without treatment, total of 22 mice) received a blocking agent intravenously 30 minutes prior to the injection of 7.4 MBq/200 µCi [89Zr]Zr-DFOsqa-Lys-Var3 (1.2 nmol pHLIP).
The drug dose was calculated as weight of drug (mg) per weight of mouse (kg). A potential kidney […]
calibrated images to the control mice (24 hours post injection). No drug led to a significant reduction […]
drug (IV 30 min before dose [mg/kg] effect on kidney mechanism of action [89Zr]Zr-pHLIP) (n=2) uptake […]
and water from the body; acts as a diuretic […]
organic anion transporter; blocks the uptake of organic anions […]
tubule via inhibition of the Na/Cl symporter; acts as a diuretic […]
increased – serum levels decreased

## CC[C@@H](C)[C@@H](NC(=O)[C@H]1CCCN1C(=O)[C@@H](CC(N)=O)NC(=O)[C@@H](CCC(N)=O)NC(=O)[C@@H](CCC(=O)O)NC(=O)[C@@H](CCCCNC(=S)Nc1ccc(NC(=S)NCCCCCN(O)C(=O)CCC(=O)NCCCCCN(O)C(=O)CCC(=O)NCCCCCN(O)C(C)=O)cc1)NC(=O)[C@@H](C)NC(C)=O)C(=O)N[C@H](Cc1ccc(O)cc1)C(=O)N[C@H](Cc1c[nH]c2ccccc12)C(=O)N[C@H](C)C(=O)N[C@H](CCCNC(=N)N)C(=O)N[C@H](Cc1ccc(O)cc1)C(=O)N[C@H](C)C(=O)N[C@H](CC(=O)O)C(=O)N[C@H](Cc1c[nH]c2ccccc12)C(=O)N[C@H](CC(C)C)C(=O)N[C@H](Cc1ccccc1)C(=O)N[C@@H](C(=O)N[C@@H](C(=O)N1CCC[C@@H]1C(=O)N[C@H](CC(C)C)C(=O)N[C@H](CC(C)C)C(=O)N[C@H](CC(C)C)C(=O)N[C@H](CC(C)C)C(=O)N[C@H](CC(=O)O)C(=O)N[C@H](CC(C)C)C(=O)N[C@H](C)C(=O)N[C@H](CC(C)C)C(=O)N[C@H](CC(C)C)C(=O)N[C@@H](C(=O)N[C@H](CC(=O)O)C(=O)N[C@H](C)C(=O)N[C@H](CC(=O)O)C(=O)N[C@H](CCC(=O)O)C(=O)NCC(=O)N[C@@H](C(=O)NCC(=O)O)[C@H](C)O)C(C)C)[C@H](C)O)[C@H](C)O [DFO-Lys-WT]
[1]; in vivo, read-out: Brain uptake
  tissue uptake at 48 h: 0.03 ± 0.03 %ID/g
[1]; in vivo, read-out: Kidneys uptake
  tissue uptake at 48 h: 14.2 ± 1.2 %ID/g
[1]; in vivo, read-out: Liver uptake
  tissue uptake at 48 h: 14.8 ± 4.7 %ID/g
[1]; in vivo, read-out: Lungs uptake
  tissue uptake at 48 h: 11.5 ± 0.4 %ID/g
[1]; in vivo, read-out: Muscle uptake
  tissue uptake at 48 h: 0.3 ± 0.08 %ID/g
[1]; in vivo, read-out: Pancreas uptake
  tissue uptake at 48 h: 0.9 ± 0.4 %ID/g
[1]; in vivo, read-out: Skin uptake
  tissue uptake at 48 h: 1.5 ± 0.2 %ID/g
[1]; in vivo, read-out: Spleen uptake
  tissue uptake at 48 h: 25.8 ± 5.5 %ID/g
[1]; in vivo, read-out: Tumor uptake
  tissue uptake at 48 h: 1.6 ± 0.1 %ID/g
[1]; tumor / muscle, RM-1 model, 48-hour timepoint, read-out: tumor-to-muscle uptake-ratio
  tissue to tissue ratio at 48 h: 5.5 ± 1.5

## N=C(N)NC(=O)c1nc(Cl)c(N)nc1N [amiloride]
[2]
  effect on kidney uptake: not significant; also recorded: none of these drugs led to a significant reduction of kidney uptake

## CC[C@@H](C)[C@@H](NC(=O)[C@H]1CCCN1C(=O)[C@@H](CC(N)=O)NC(=O)[C@@H](CCC(N)=O)NC(=O)[C@@H](CCC(=O)O)NC(=O)[C@@H](CCCCNC(=S)Nc1ccc(NC(=S)NCCCCCN(O)C(=O)CCC(=O)NCCCCCN(O)C(=O)CCC(=O)NCCCCCN(O)C(C)=O)cc1)NC(=O)[C@@H](C)NC(C)=O)C(=O)N[C@H](Cc1ccc(O)cc1)C(=O)N[C@H](Cc1c[nH]c2ccccc12)C(=O)N[C@H](C)C(=O)N[C@H](CCCNC(=N)N)C(=O)N[C@H](Cc1ccc(O)cc1)C(=O)N[C@H](C)C(=O)N[C@H](CC(=O)O)C(=O)N[C@H](Cc1c[nH]c2ccccc12)C(=O)N[C@H](CC(C)C)C(=O)N[C@H](Cc1ccccc1)C(=O)N[C@@H](C(=O)N[C@@H](C(=O)N1CCC[C@@H]1C(=O)N[C@H](CC(C)C)C(=O)N[C@H](CC(C)C)C(=O)N[C@H](CC(C)C)C(=O)N[C@H](CC(C)C)C(=O)N[C@H](CC(=O)O)C(=O)N[C@H](CC(C)C)C(=O)N[C@H](C)C(=O)N[C@H](CC(C)C)C(=O)N[C@H](CC(C)C)C(=O)N[C@@H](C(=O)N[C@H](CC(=O)O)C(=O)N[C@H](C)C(=O)N[C@H](CC(=O)O)C(=O)N[C@H](CCC(=O)O)C(=O)NCC(=O)N[C@@H](C(=O)NCC(=O)O)[C@H](C)O)C(C)C)[C@H](C)O)[C@H](C)O (89Zr complex, metal not drawn) [DFO-Lys-WT]
[1]; blood, read-out: Blood uptake
  tissue uptake at 48 h: 0.1 ± 0.03 %ID/g
[1]; tibia, read-out: Tibia uptake
  tissue uptake at 48 h: 2.3 ± 0.5 %ID/g

## CC(=O)Nc1nnc(S(N)(=O)=O)s1 [acetazolamide]
[2]
  effect on kidney uptake: not significant; also recorded: none of these drugs led to a significant reduction of kidney uptake

## CC(=O)N[C@H](C)C(=O)N[C@H](CCCCNC(=S)Nc1ccc(NC(=S)NCCCCCN(O)C(=O)CCC(=O)NCCCCCN(O)C(=O)CCC(=O)NCCCCCN(O)C(=O)CCC(=O)NCCCCCN(O)C(C)=O)cc1)C(=O)N[C@H](CC(=O)O)C(=O)N[C@H](CC(=O)O)C(=O)N[C@H](CCC(N)=O)C(=O)N[C@H](CC(N)=O)C(=O)N1CCC[C@@H]1C(=O)N[C@H](Cc1c[nH]c2ccccc12)C(=O)N[C@H](CCCNC(=N)N)C(=O)N[C@H](C)C(=O)N[C@H](Cc1ccc(O)cc1)C(=O)N[C@H](CC(C)C)C(=O)N[C@H](CC(=O)O)C(=O)N[C@H](CC(C)C)C(=O)N[C@H](CC(C)C)C(=O)N[C@H](Cc1ccccc1)C(=O)N1CCC[C@@H]1C(=O)N[C@@H](C(=O)N[C@H](CC(=O)O)C(=O)N[C@@H](C(=O)N[C@H](CC(C)C)C(=O)N[C@H](CC(C)C)C(=O)N[C@H](CC(C)C)C(=O)N[C@H](CC(=O)O)C(=O)N[C@H](CC(C)C)C(=O)N[C@H](CC(C)C)C(=O)N[C@H](Cc1c[nH]c2ccccc12)C(=O)N[C@H](C)C(=O)O)[C@H](C)O)[C@H](C)O [DFO*-Lys-Var3] (Ac-[dA][dK](X1)[dD][dD][dQ][dN][dP][dW][dR][dA][dY][dL][dD][dL][dL][dF][dP][dT][dD][dT][dL][dL][dL][dD][dL][dL][dW][dA]-OH; C-terminus assumed)
[1]; in vivo, read-out: Tibia uptake
  tissue uptake at 48 h: 1.1 ± 0.5 %ID/g

## CN(C)c1nc(N)c(C(=O)NC(=N)N)nc1Cl [5-(N,N-dimethyl)amiloride]
[2]
  effect on kidney uptake: not significant; also recorded: none of these drugs led to a significant reduction of kidney uptake
